Experimental data: PMC9294231, “gC1qR/C1qBP/HABP-1: Structural Analysis of the Trimeric Core Region, Interactions With a Novel Panel of Monoclonal Antibodies, and Their Influence on Binding to FXII” (Frontiers in Immunology, 2022)

How the values were obtained:
[1] = biological target: wild-type gC1qR (human) (UniProt Q07021); test: SEC; analytical gel filtration (Superdex 200 Increase 10/300 GL) of purified FXII, wild-type gC1qR and gC1qR/FXII in a Zn++-containing buffer, compared to size standards
[2] = biological target: gC1qR-DD-avi, enzymatically biotinylated (human) (UniProt Q07021); test: SPR; enzymatically biotinylated gC1qR-avi or gC1qR-DD-avi captured to 100 RU on an SA chip; FXII or FXIIa injected 1.6 to 800 nM; 25°C, HBS-T with 50 µM ZnCl2; ligand heterogeneity model with two independent binding sites; apparent
[3] = biological target: gC1qR-avi, enzymatically biotinylated (human) (UniProt Q07021); test: as above
[4] = biological target: HKH-20 HKH-20 peptide (Homo sapiens) (UniProt P01042); test: ITC; conditions: cited from earlier work
[5] = biological target: gC1qR-D1 (human) (UniProt Q07021); test: SEC; gel filtration on Superdex S200 in PBS (pH 7.4); solution behaviour shown in Figure S1 (not shown to me)
[6] = biological target: gC1qR-D1 (loop 1 deletion mutant) (human) (UniProt Q07021); test: SEC; analytical gel filtration of purified gC1qR proteins on Superdex 200 Increase 10/300 GL, compared to size standards (670, 66, 13 kDa)
[7] = biological target: gC1qR-D2 (human) (UniProt Q07021); test: SEC; gel filtration on Superdex S200 in PBS (pH 7.4); solution behaviour shown in Figure S1 (not shown to me)
[8] = biological target: gC1qR-D2 (loop 2 deletion mutant) (human) (UniProt Q07021); test: SEC; analytical gel filtration of purified gC1qR proteins on Superdex 200 Increase 10/300 GL, compared to size standards (670, 66, 13 kDa)
[9] = biological target: gC1qR-DD (double loop deletion mutant) (human) (UniProt Q07021); test: as above
[10] = biological target: gC1qR-DD (human) (UniProt Q07021); test: SEC; gel filtration on Superdex S200 in PBS (pH 7.4); solution behaviour shown in Figure S1 (not shown to me)
[11] = biological target: wild-type gC1qR (human) (UniProt Q07021); test: SEC; analytical gel filtration of purified gC1qR proteins on Superdex 200 Increase 10/300 GL, compared to size standards (670, 66, 13 kDa)
[12] = biological target: T1, wild-type gC1qR (residues 74-282) (human, UniProt Q07021 74-282); test: SEC; gel filtration on Superdex S200 in PBS (pH 7.4); solution behaviour shown in Figure S1 (not shown to me)
T1 construct: gC1qR/C1qBP/HABP-1, human, residues 74-282 (the mature form of the 282-residue pre-pro protein); Expressed from vector pT7HMT; the tag was removed with TEV protease; also called C1qBP; HABP-1; source: E. coli BL21(DE3), purified (NiNTA, TEV digestion, gel filtration Superdex S200)
T1 sequence (looked up): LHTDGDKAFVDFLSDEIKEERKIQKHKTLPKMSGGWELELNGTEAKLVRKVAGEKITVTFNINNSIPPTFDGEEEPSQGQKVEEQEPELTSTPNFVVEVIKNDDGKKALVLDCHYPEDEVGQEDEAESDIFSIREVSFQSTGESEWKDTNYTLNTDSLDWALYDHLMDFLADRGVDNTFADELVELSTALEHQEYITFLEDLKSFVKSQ

[13] = biological target: gC1qR-D1 (human) (UniProt Q07021); test: SPR; gC1qR proteins amine-coupled to a CMD200M chip (gC1qR 361 RU, D1 487 RU, D2 360 RU, DD 874 RU); HKH-20 injected 46.9 nM to 10 µM; 25°C, HBS-T (20 mM HEPES pH 7.4, 140 mM NaCl, 0.005% Tween-20); affinity (dose/response) model, apparent KD
[14] = biological target: gC1qR-D2 (human) (UniProt Q07021); test: as above
[15] = biological target: T1, wild-type gC1qR (residues 74-282); test: as above; conditions: both partners purified

Molecule: Factor XII (native) (natural protein)
- stoichiometry N (FXII monomer per gC1qR trimer) [1]: 1

Molecule: activated Factor XIIa (FXIIa) (enzyme)
- KD-1 (first binding site) [2]: 0.12 nM
- KD-2 (second binding site) [2]: 178 nM
- ka-1 (first binding site) [2]: 1.13e+06 M⁻¹ s⁻¹
- ka-2 (second binding site) [2]: 63700 M⁻¹ s⁻¹
- kd-1 (first binding site) [2]: 0.000147 s⁻¹
- kd-2 (second binding site) [2]: 0.0112 s⁻¹
- KD-1 (first binding site) [3]: 0.27 nM
- KD-2 (second binding site) [3]: 134 nM
- ka-1 (first binding site) [3]: 408000 M⁻¹ s⁻¹
- ka-2 (second binding site) [3]: 48200 M⁻¹ s⁻¹
- kd-1 (first binding site) [3]: 9e-05 s⁻¹
- kd-2 (second binding site) [3]: 0.0063 s⁻¹

Molecule: gC1qR (from UniProt Q07021)
- Kd [4]: 6300 nM

Molecule: gC1qR-D1 (from UniProt Q07021 74-138; Q07021 164-282) (natural protein)
- stoichiometry N [5]: 3

Molecule: gC1qR-D1 (loop 1 deletion mutant) (from UniProt Q07021 74-282) (domain or fragment)
- stoichiometry N [6]: 3

Molecule: gC1qR-D2 (from UniProt Q07021 74-189; Q07021 202-282) (natural protein)
- stoichiometry N [7]: 3

Molecule: gC1qR-D2 (loop 2 deletion mutant) (from UniProt Q07021 74-282) (domain or fragment)
- stoichiometry N [8]: 3

Molecule: gC1qR-DD (double loop deletion mutant) (from UniProt Q07021 74-282) (domain or fragment)
- stoichiometry N [9]: 3

Molecule: gC1qR-DD (from UniProt Q07021 74-138; Q07021 164-189; Q07021 202-282) (natural protein)
- stoichiometry N [10]: 3

Molecule: native coagulation factor XII (FXII) (natural protein)
- KD-1 (first binding site) [2]: 1.69 nM
- KD-2 (second binding site) [2]: 26.4 nM
- ka-1 (first binding site) [2]: 674000 M⁻¹ s⁻¹
- ka-2 (second binding site) [2]: 34800 M⁻¹ s⁻¹
- kd-1 (first binding site) [2]: 0.00114 s⁻¹
- kd-2 (second binding site) [2]: 0.00091 s⁻¹
- KD-1 (first binding site) [3]: 4.85 nM
- KD-2 (second binding site) [3]: 97.6 nM
- ka-1 (first binding site) [3]: 676000 M⁻¹ s⁻¹
- ka-2 (second binding site) [3]: 23700 M⁻¹ s⁻¹
- kd-1 (first binding site) [3]: 0.00316 s⁻¹
- kd-2 (second binding site) [3]: 0.0023 s⁻¹

Molecule: wild-type gC1qR (from UniProt Q07021 74-282) (domain or fragment; other documents disagree on this pair)
- stoichiometry N [11]: 3

Molecule: wild-type gC1qR (residues 74-282) (from UniProt Q07021 74-282) (natural protein; other documents disagree on this pair)
- stoichiometry N [12]: 3

B1: peptide HKH-20 (peptide)
peptide: HKHGHGHGKHKNKGKKNGKH
notes: The discussion speaks of peptides derived from HMWK residues 493-516 in general; also called HKH-20 peptide; source: synthetic peptide (GenScript)
- Kd [13]: 10000 nM
- Kd [14]: 10000 nM
- Kd [15]: 8700 nM
